Patent US20090208416A1

Experiments:
[1] = target: NKG2A on rhesus monkey (Macaca mulatta) NK cells (rhesus monkey (Macaca mulatta)) (UniProt Q9MZJ3); experiment: FACS rhesus whole blood, animal O967
[2] = target: NKG2A on rhesus monkey (Macaca mulatta) NK cells (rhesus monkey (Macaca mulatta)) (UniProt Q9MZJ3); experiment: FACS rhesus whole blood, animal 31828
[3] = target: NKG2A on rhesus monkey (Macaca mulatta) NK cells (rhesus monkey (Macaca mulatta)) (UniProt Q9MZJ3); experiment: FACS rhesus whole blood, animal R00013
[4] = target: NKG2A on rhesus monkey (Macaca mulatta) NK cells (rhesus monkey (Macaca mulatta)) (UniProt Q9MZJ3); experiment: FACS rhesus whole blood, animal R00023
[5] = target: NKG2A on rhesus monkey (Macaca mulatta) NK cells (rhesus monkey (Macaca mulatta)) (UniProt Q9MZJ3); experiment: FACS rhesus whole blood, animal R00025
[6] = target: NKG2A on rhesus monkey (Macaca mulatta) NK cells (rhesus monkey (Macaca mulatta)) (UniProt Q9MZJ3); experiment: FACS rhesus whole blood, animal R00061
[7] = target: NKG2A on rhesus monkey (Macaca mulatta) NK cells (rhesus monkey (Macaca mulatta)) (UniProt Q9MZJ3); experiment: FACS rhesus whole blood, animal R00077
[8] = target: NKG2A on rhesus monkey (Macaca mulatta) NK cells (rhesus monkey (Macaca mulatta)) (UniProt Q9MZJ3); experiment: FACS rhesus whole blood, animal R00093
[9] = target: NKG2A on rhesus monkey (Macaca mulatta) NK cells (rhesus monkey (Macaca mulatta)) (UniProt Q9MZJ3); experiment: FACS rhesus whole blood, animal R00099
[10] = target: NKG2A on rhesus monkey (Macaca mulatta) NK cells (rhesus monkey (Macaca mulatta)) (UniProt Q9MZJ3); experiment: FACS rhesus whole blood, animal R00101
[11] = target: NKG2A on rhesus monkey (Macaca mulatta) NK cells (rhesus monkey (Macaca mulatta)) (UniProt Q9MZJ3); experiment: FACS rhesus whole blood, animal R99273
[12] = target: NKG2A on cynomolgus monkey NK cells (cynomolgus monkey) (UniProt Q68VD2); experiment: FACS cynomolgus whole blood, animal T270
Sequence of UniProt Q68VD2 (Q68VD2 entry or part of it): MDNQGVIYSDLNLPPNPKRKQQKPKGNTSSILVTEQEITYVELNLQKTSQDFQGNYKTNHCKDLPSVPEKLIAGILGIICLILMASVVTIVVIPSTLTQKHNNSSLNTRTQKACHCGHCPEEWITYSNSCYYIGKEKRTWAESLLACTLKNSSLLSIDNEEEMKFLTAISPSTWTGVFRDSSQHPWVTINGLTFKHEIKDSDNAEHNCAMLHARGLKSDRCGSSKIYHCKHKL

[13] = target: NKG2A on cynomolgus monkey NK cells (cynomolgus monkey) (UniProt Q68VD2); experiment: FACS cynomolgus whole blood, animal AK729
[14] = target: NKG2A on rhesus monkey (Macaca mulatta) NK cells (rhesus monkey (Macaca mulatta)) (UniProt Q9MZJ3); experiment: FACS rhesus whole blood, mean over animals
[15] = target: NKG2A on baboon NK cells (baboon); experiment: FACS baboon whole blood NK cells, animal O22V
[16] = target: NKG2A on baboon NK cells (baboon); experiment: FACS baboon whole blood NK cells, animal V989
[17] = target: NKG2A on baboon NK cells (baboon); experiment: FACS baboon whole blood NK cells, animal V992
[18] = target: NKG2A on baboon NK cells (baboon); experiment: FACS baboon whole blood NK cells, animal V997
[19] = target: NKG2A on baboon NK cells (baboon); experiment: FACS baboon whole blood NK cells, animal V999
[20] = target: NKG2A on rhesus monkey (Macaca mulatta) NK cells (rhesus monkey (Macaca mulatta)) (UniProt Q9MZJ3); experiment: FACS rhesus whole blood NK cells, animal *8703
[21] = target: NKG2A on rhesus monkey (Macaca mulatta) NK cells (rhesus monkey (Macaca mulatta)) (UniProt Q9MZJ3); experiment: FACS rhesus whole blood NK cells, animal MM031
[22] = target: NKG2A on rhesus monkey (Macaca mulatta) NK cells (rhesus monkey (Macaca mulatta)) (UniProt Q9MZJ3); experiment: FACS rhesus whole blood NK cells, animal N0401
[23] = target: NKG2A on rhesus monkey (Macaca mulatta) NK cells (rhesus monkey (Macaca mulatta)) (UniProt Q9MZJ3); experiment: FACS rhesus whole blood NK cells, animal PM021
[24] = target: NKG2A on baboon NK cells (baboon); experiment: FACS baboon whole blood NK cells, animal PA977
[25] = target: NKG2A on baboon NK cells (baboon); experiment: FACS baboon whole blood NK cells, animal PA983
[26] = target: NKG2A on baboon NK cells (baboon); experiment: FACS baboon whole blood NK cells, animal V857C
[27] = target: NKG2A on baboon NK cells (baboon); experiment: FACS baboon whole blood NK cells, animal V914B
[28] = target: NKG2A on baboon NK cells (baboon); experiment: FACS baboon whole blood NK cells, animal V942A
[29] = target: NKG2A on baboon NK cells (baboon); experiment: FACS baboon whole blood NK cells, animal V9812
[30] = target: NKG2A on baboon NK cells (baboon); experiment: FACS baboon whole blood NK cells, animal V9920
[31] = target: NKG2A on baboon NK cells (baboon); experiment: FACS baboon whole blood NK cells, animal V9926
[32] = target: NKG2A on baboon NK cells (baboon); experiment: FACS baboon whole blood NK cells, animal V9929
[33] = target: NKG2A on rhesus monkey (Macaca mulatta) NK cells (rhesus monkey (Macaca mulatta)) (UniProt Q9MZJ3); experiment: FACS rhesus whole blood, animal R00073 (6.1 kg)
[34] = target: NKG2A on cynomolgus monkey NK cells (cynomolgus monkey) (UniProt Q68VD2); experiment: FACS cynomolgus whole blood, mean of 10 animals

Sequence of UniProt Q9MZJ3 (Q9MZJ3 whole entry): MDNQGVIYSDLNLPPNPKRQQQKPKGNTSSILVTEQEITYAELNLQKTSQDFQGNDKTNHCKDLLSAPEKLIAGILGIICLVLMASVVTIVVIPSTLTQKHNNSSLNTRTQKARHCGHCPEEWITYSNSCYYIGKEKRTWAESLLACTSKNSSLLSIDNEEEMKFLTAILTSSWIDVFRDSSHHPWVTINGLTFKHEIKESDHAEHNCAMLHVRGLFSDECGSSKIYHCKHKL

Substance: mouse IgG1 isotype control (antibody)
- % NK+ [1]: 0.5%
- MFI [1]: 0.67
- % NK+ [2]: 0.4%
- MFI [2]: 0.65
- % NK+ [3]: 0.3%
- MFI [3]: 0.66
- % NK+ [4]: 0.3%
- MFI [4]: 0.5
- % NK+ [5]: 0.7%
- MFI [5]: 0.45
- % NK+ [6]: 0.5%
- MFI [6]: 0.5
- % NK+ [7]: 0.4%
- MFI [7]: 0.41
- % NK+ [8]: 1%
- MFI [8]: 0.68
- % NK+ [9]: 1.2%
- MFI [9]: 0.56
- % NK+ [10]: 0.5%
- MFI [10]: 0.58
- % NK+ [11]: 0.5%
- MFI [11]: 0.54
- % NK+ [12]: 0.2%
- MFI [12]: 0.54
- % NK+ [13]: 0.3%
- MFI [13]: 0.6
- % NK+ (Mean) [14]: 0.7%
- MFI (Mean) [14]: 0.6
- % [15]: 0.5%
- tot. MFI [15]: 0.2
- % [16]: 1.2%
- tot. MFI [16]: 1.2
- % [17]: 0.6%
- tot. MFI [17]: 0.3
- % [18]: 0.7%
- tot. MFI [18]: 0.2
- % [19]: 0.3%
- tot. MFI [19]: 0.2
- % [20]: 0.4%
- % [21]: 0.4%
- % [22]: 0.5%
- % [23]: 0.8%
- % [24]: 0.9%
- tot. MFI [24]: 1.1
- % [25]: 0.1%
- tot. MFI [25]: 0.7
- % [26]: 0.8%
- tot. MFI [26]: 1.4
- % [27]: 0.4%
- tot. MFI [27]: 1.1
- % [28]: 1.7%
- tot. MFI [28]: 1
- % [29]: 1.3%
- tot. MFI [29]: 1.2
- % [30]: 0.7%
- tot. MFI [30]: 0.8
- % [31]: 0.5%
- tot. MFI [31]: 0.2
- % [32]: 0.3%
- tot. MFI [32]: 0.2
- % NK+ [33]: 0.7%
- MFI [33]: 0.59
- % NK+ (Mean) [34]: 0.3%
- MFI (Mean) [34]: 0.6
